Experimental data: patent publication US20220259303A1 (ZHEJIANG DOER BIOLOGICS, published 2022)

How the values were obtained:
CLD18A2 [1] = test: cell-based or functional assay
CLD18A2 [2] = target: T1, CLD18A2; test: cell ELISA on CHO-S-CLD18A2, anti-his tag detection
T1 construct: also called claudin 18 splice variant A2; CHO-S-CLD18A2
Procedure: (§1) CHO-S-CLD18A2 cells are plated in a 96-well plate at 5×10⁵ cells per well, and blocked with 3% BSA at room temperature for 1 h. The purified Anti-CLD18A2 VHH fused with histidine tag is diluted in gradients with 1% BSA, added to the blocked cells, and incubated for 1 h at room temperature. After washing, 100 μl/well of 1:5000 diluted mouse anti-his tag antibody (R&D Systems, Inc) was added and incubated at room temperature for 1 h. After washing, 100 μl/well of 1:10000 diluted HRP-Goat anti-mouse IgG antibody (Thermo Scientific) was added and incubated for 1 h at room temperature. After washing, TMB was added to develop color. The OD value is detected at 450 nm. The software GraphPad Prism v5.0 is used for data processing and mapping analysis, and the EC50 value of Anti-CLD18A2 VHH against CLD18A2 on cells is obtained to reflect the affinity of the VHH to CLD18A2.
(§2) CHO-S-CLD18A2 and Jurkat cells are plated in 96-well plates at 5×10⁵/ml per well, and blocked with 3% BSA for 1 hat room temperature. The purified Anti-CLDN18×CD3 fusion protein, the Anti-C18.2-6 and Anti-C18.2-19 VHH prepared in Embodiment 4, and the anti-CD3 VHH are diluted in gradients with 1% BSA, and then added into the pre-blocked cells respectively, and then incubated at room temperature for 1 h. The following experimental process is the same as in Embodiment 4.3. […]

CD3 = target: T2, CD3 (human, UniProt P07766 23-207; P09693 23-182; P04234 22-171; P20963 22-164); test: cell ELISA on CD3-positive Jurkat cells, anti-his tag detection
T2 construct: whole, on cells; also called CD3 positive cell Jurkat; cluster of differentiation 3
Procedure: as §1, §2

CLD18A2 [3] = target: T1, CLD18A2; test: cell ELISA, purified VHH 2 µg/ml on CHO-S-CLD18A2
Procedure: (§3) CHO-S, CHO-S-CLD18A1, and CHO-S-CLD18A2 are plated in 96-well plates at 5×10⁵ cells per well, and blocked with 3% BSA at room temperature for 1 h. The purified Anti-CLD18A2 VHH with HIS-tag is diluted to 2 μg/ml, add 100 μl to the blocked cells, and incubated for 1 h at room temperature. After washing, 100 μl/well of 1:5000 diluted mouse anti-his tag antibody (R&D Systems, Inc) was added and incubated at room temperature for 1 h. After washing, 100 μl/well of 1:10000 diluted HRP-Goat anti-mouse IgG antibody (Thermo Scientific) was added and incubated for 1 h at room temperature. After washing, TMB was added to develop color. The OD value is measured at 450 nm.

CLD18A1 [4] = target: T3, CLD18A1 (Homo sapiens (Human), UniProt P56856 1-261); test: cell ELISA, purified HIS-tagged VHH on CHO-S-CLD18A1
T3 construct: also called claudin 18 splice variant A1; CHO-S-CLD18A1
Procedure: as §3

CLD18A2 [5] = target: T1, CLD18A2; test: cell ELISA, his-tagged VHH titrated on CHO-S-CLD18A2
Procedure: as §1

CLD18A1 [6] = target: T3, CLD18A1; test: cell ELISA, E. coli expression supernatant on CHO-S-CLD18A1
Procedure: (§4) The clones selected according to the results of the 96-well plates of CHO-S, CHO-S-CLD18A1, and CHO-S-CLD18A2 cells are cultured. pcomb3XSS plasmids containing a single VHH sequence are extracted, and transformed into E. coli respectively to expression host Rosetta DE3. The respective expression clones are selected and cultured, then induced with 0.2 mM IPTG at 30° C. overnight to facilitate the periplasm-expressed proteins leakage into the culture medium supernatant. The culture medium supernatant of 16 clones are examined by ELISA again: adding 100 μl/well of 1:5000 diluted mouse anti his tag antibody (R&D Systems, Inc), incubating at room temperature for 1 h, washing, adding 100 μl/well of 1:10000 diluted HRP-Goat anti-mouse IgG antibody (Thermo Scientific), incubating for 1 h at room temperature, and adding TMB to develop color after washing. The negative control is a clone transfected with negative plasmid. The cell ELISA results are shown in Table 1, and the specific binding clones are further selected. These clones are sequenced respectively. Amino acid sequence alignment is performed. Clones with identical sequences are removed and finally 8 different clones are obtained.

CLD18A2 [7] = target: T1, CLD18A2; test: cell ELISA, E. coli expression supernatant on CHO-S-CLD18A2
Procedure: as §4

CLD18A2 [8] = target: T1, CLD18A2; test: cell ELISA on CLD18A2-expressing cells, anti-human IgG Fc detection
Procedure: The Anti-C18.2-Fc fusion proteins are diluted in gradients with 1% BSA, and the HRP-Goat anti-Human IgG Fc (Novex) secondary antibody is diluted 1:20000. The cell ELISA method is the same as that described in Embodiment 3.2. The software GraphPad Prism v5.0 is used for data processing and mapping analysis. The binding curve and EC50 value of Anti-C18.2-Fc against CLD18A2 in cells are obtained to reflect the affinity of the antibody to CLD18A2.
The affinities of Anti-C18.2-hu19V1-Fc and Anti-C18.2-hu19V3-Fc are similar to that of Anti-C18.2-19-Fc, which are better than that of the positive control ch-175D10.

T3 sequence (P56856 whole entry, canonical isoform): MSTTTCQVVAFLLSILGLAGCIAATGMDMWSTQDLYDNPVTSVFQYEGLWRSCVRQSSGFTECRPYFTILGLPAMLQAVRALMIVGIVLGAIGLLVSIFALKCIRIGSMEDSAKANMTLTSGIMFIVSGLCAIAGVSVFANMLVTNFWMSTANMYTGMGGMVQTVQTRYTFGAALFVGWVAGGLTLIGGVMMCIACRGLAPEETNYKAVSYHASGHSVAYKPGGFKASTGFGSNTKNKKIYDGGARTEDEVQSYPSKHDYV
T2 sequence (P07766 23-207, chain 1 of 4): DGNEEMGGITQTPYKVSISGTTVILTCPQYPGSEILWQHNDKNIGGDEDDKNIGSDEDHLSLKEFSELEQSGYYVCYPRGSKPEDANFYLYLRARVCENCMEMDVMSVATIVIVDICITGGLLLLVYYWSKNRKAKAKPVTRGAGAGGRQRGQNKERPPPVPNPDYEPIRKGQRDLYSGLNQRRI
T2 sequence (P09693 23-182, chain 2 of 4): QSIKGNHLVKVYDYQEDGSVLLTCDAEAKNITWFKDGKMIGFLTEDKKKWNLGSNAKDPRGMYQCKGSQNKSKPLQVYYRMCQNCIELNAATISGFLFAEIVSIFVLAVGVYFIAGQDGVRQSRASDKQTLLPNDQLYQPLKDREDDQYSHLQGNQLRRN
T2 sequence (P04234 22-171, chain 3 of 4): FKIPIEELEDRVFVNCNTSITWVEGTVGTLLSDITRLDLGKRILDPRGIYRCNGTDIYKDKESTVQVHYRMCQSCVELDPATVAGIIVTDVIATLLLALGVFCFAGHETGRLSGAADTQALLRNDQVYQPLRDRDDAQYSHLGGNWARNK
T2 sequence (P20963 22-164, chain 4 of 4): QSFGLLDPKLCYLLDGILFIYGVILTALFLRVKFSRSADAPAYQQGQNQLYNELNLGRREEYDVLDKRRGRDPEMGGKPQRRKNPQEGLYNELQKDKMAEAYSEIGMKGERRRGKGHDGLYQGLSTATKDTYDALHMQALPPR

Binder	EC50 of killing of NUGC-4-CLD18A2 with T cells (LDH release, E:T 10:1) (CLD18A2 [1]) [nM]	EC50 (CLD18A2 [2]) [nM]	EC50 (CD3) [nM]	OD450 nm (CLD18A2 [3]) [OD450 nm]	binding result (CLD18A1 [4])	EC50 (CLD18A2 [5]) [nM]	OD450 nm (CLD18A1 [6]) [OD450 nm]	OD450 nm (CLD18A2 [7]) [OD450 nm]	EC50 (CLD18A2 [8]) [nM]
Anti-CLDN18×CD3-hu6V3 (bispecific antibody, Bispecific VHH; Expressed in Pichia pastoris; also called Anti-CLDN18×CD3 fusion protein) QVQLVESGGGLVQPGGSLRLSCAASGGIFSIGVMGWYRQAPGKGLELVATITSRGSTNYADSVKGRFTISRDNSKNTLYLQMNSLRAEDTAVYYCYADLIRPGDFYGMDYWGQGTLVTVSSGGGGSGGGGSGGGGSGGGGSGGGGSGGGGSGGGGSEVQLVESGGGPVQAGGSLRLSCAASGRTYRGYSMGWFRQAPGKEREFVAAIVWSGGNTYYEDSVKGRFTISRDNAKNTMYLQMTSLKPEDSATYYCAAKIRPYIFKIAGQYDYWGQGTQVTVSS	0.0261	6.5	9.39	–	–	–	–	–	–
Anti-CLDN18×CD3-hu19V3 (bispecific antibody, Bispecific VHH; Expressed in Pichia pastoris; also called Anti-CLDN18×CD3 fusion protein) QVQLVESGGGLVQPGGSLRLSCAASGVDISSDVMAWYRQAPGKGLEFVSGLTRGGSINYADSVKGRFTISRDNSKNTLYLQMNSLRAEDTAVYYCNAEIYTGTFYPRSYWGQGTLVTVSSGGGGSGGGGSGGGGSGGGGSGGGGSGGGGSGGGGSEVQLVESGGGPVQAGGSLRLSCAASGRTYRGYSMGWFRQAPGKEREFVAAIVWSGGNTYYEDSVKGRFTISRDNAKNTMYLQMTSLKPEDSATYYCAAKIRPYIFKIAGQYDYWGQGTQVTVSS	0.0207	4.6	10.4	–	–	–	–	–	–
Anti-C18.2-15 (VHH, not shown: small tags and cut ends, Treated as one molecule; also called C18-15) VHH: QVQLVESGGGLVQPGGSLRLSCTASGSIFRIDGMHWYRQAPGKQRELVASITPSGITHYADSVKGRFTISRDIAKKMQYLQMNSLKPEDTAVYYCNAHLVKVGGVWSDEYWGQGTQVTVSS	–	–	–	0.671	no binding (tested: 2 µg/ml)	2.89	0.189	0.685	–
Anti-C18.2-19 (VHH, not shown: small tags and cut ends, Treated as one molecule; also called C18-19) VHH: QLQLVESGGGLVQPGGSLRLSCAASGVDISSDVMAWYRQAPGKQREFVSGLTRGGSINYADSVKGRFTISRDFAKNTVDLQMNSLKPEDTAVYYCNAEIYTGTFYPRSYWGQGTQVTVSS	–	–	–	0.668	no binding (tested: 2 µg/ml)	1.25	0.121	0.565	–
Anti-C18.2-20 (VHH, not shown: small tags and cut ends, Treated as one molecule; also called C18-20) VHH: QVQLVESGGGLVQPGGSLRLSCAASGSIFSINAMGWYRQAPGKQRELVAAITFGGGSTNYADSVKGRFTISRDNAKNTVYLQMNSLKPEDTAVYYCNADLLVGGFPRRNVYWGQGTQVTVSS	–	–	–	0.621	no binding (tested: 2 µg/ml)	1.87	0.128	0.528	–
Anti-C18.2-7 (VHH, not shown: small tags and cut ends, Treated as one molecule; also called C18-7) VHH: QVQLVESGGGLVQPGGSLRLSCAASGSIFLINAMGWYRQAPGKQRELVAVITRGGSANYTDSVKGRFTISRDNAKNTVYLQMNSLKPEDTAVYYCNADLNLRSDPFKWYTFWGQGTQVTVSS	–	–	–	0.658	no binding (tested: 2 µg/ml)	2.12	0.132	0.594	–
Anti-C18.2-28 (VHH, not shown: small tags and cut ends, Treated as one molecule; also called C18-28) VHH: QVQLVESGGGLVQPGGSLRLSCAASGSIFMINVMGWYRQAPGKQRELVAVITRGASTNYADSVKGRFTISRDNAKNTVYLQMNSLKPEDTAVYYCNADLNLASDPFKWYTYWGQGTQVTVSS	–	–	–	0.598	no binding (tested: 2 µg/ml)	2.54	0.121	0.47	–
Anti-C18.2-32 (VHH, not shown: small tags and cut ends, Treated as one molecule; also called C18-32) VHH: QLQLVESGGGLVQPGGSLRLSCAASGEISSDAMAWYRQAPGKQRELVAGMTRGGSTNYADSVKGRFTISRDFAKNTVDLQMNSLKPEDTAVYYCNAEIYTGTFYPRSYWGQGTQVTVSS	–	–	–	0.586	no binding (tested: 2 µg/ml)	2.21	0.107	0.526	–
Anti-C18.2-69 (VHH, not shown: small tags and cut ends, Treated as one molecule; also called C18-69) VHH: QVQLVESGGGLVQPGGSLRLSCAASGSIFSIPVMTWYRQALGKEREFVAGISKGGTSNYADSVKGRFTVSRDNAKNTVYLQMNSLKSEDTAVYYCNAQASSFGWMPLSDYWGQGTQVTVSS	–	–	–	0.573	no binding (tested: 2 µg/ml)	2.23	0.253	0.608	–
Anti-C18.2-6 (VHH, not shown: small tags and cut ends, Treated as one molecule; also called C18-6) VHH: QLQLVESGGGLVQPGGSLRLSCAASGGIFSIGVMGWYRQAPGKQRELVATITSRGSTNYADSVKGRFTISGDNAKNTVYLQMNNLKPEDTAVYYCYADLIRPGDFYGMDYWGKGTLVTVSS	–	–	–	0.719	no binding (tested: 2 µg/ml)	1.53	0.142	0.623	–
ch-175D10 (antibody, V domains shown) VH: QVQLQQPGAELVRPGASVKLSCKASGYTFTSYWINWVKQRPGQGLEWIGNIYPSDSYTNYNQKFKDKATLTVDKSSSTAYMQLSSPTSEDSAVYYCTRSWRGNSFDYWGQGTTLTVSS VL: DIVMTQSPSSLTVTAGEKVTMSCKSSQSLLNSGNQKNYLTWYQQKPGQPPKLLIYWASTRESGVPDRFTGSGSGTDFTLTISSVQAEDLAVYYCQNDYSYPFTFGSGTKLEIKR	–	–	–	–	–	–	–	–	2.59
